Source: patent publication US20090274695A1 (published 2009)
One block for each binder: values may come before it.

Key:
[1] = molecular target: T1, unnamed immobilized partner drawn in Figure 10B; assay: BIAcore, two-step binding scheme drawn beside the numbers; immobilized partner not named
T1 construct: It is drawn as a chain of three ovals held by a small tag on a cross-shaped capture molecule on the surface; This would fit biotinylated uPAR on avidin, but it carries no label, so it is not assigned to m7 or m13

[2] = molecular target: T2, Mouse uPAR, full-length, on transfected COS cells (mouse, UniProt P35456 24-298); assay: AP fusion protein on COS cells transfected with murine uPAR, colorimetric AP assay; bar pattern assigned by bar order and by paragraph 233
T2 construct: whole, on cells; also called murine uPAR
T2 sequence (looked up): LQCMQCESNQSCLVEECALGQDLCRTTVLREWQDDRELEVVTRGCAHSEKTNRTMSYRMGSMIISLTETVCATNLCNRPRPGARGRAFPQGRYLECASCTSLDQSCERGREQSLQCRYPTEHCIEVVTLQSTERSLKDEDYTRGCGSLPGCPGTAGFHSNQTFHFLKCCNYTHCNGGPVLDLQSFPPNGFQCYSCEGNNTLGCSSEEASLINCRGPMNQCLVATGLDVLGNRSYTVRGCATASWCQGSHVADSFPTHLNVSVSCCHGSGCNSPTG

[3] = molecular target: T1, unnamed immobilized partner drawn in …; assay: BIAcore, two-step binding scheme. The line is printed 'ka1' a second time, but the unit 1/s and the scheme's kd1 mark it as the dissociation rate of the first step. Immobilized partner not named
[4] = molecular target: T3, Human uPAR (urokinase-type plasminogen activator receptor), full-length, on transfected COS or CHO cells (human, UniProt Q03405 23-305); assay: homologous competition of purified CYTL1 against CYTL1-AP on uPAR-transfected cells, three independent experiments
T3 construct: whole, on cells; GPI-anchored on the cell surface; also called uPAR-transfected cells
T3 sequence (Q03405 23-305): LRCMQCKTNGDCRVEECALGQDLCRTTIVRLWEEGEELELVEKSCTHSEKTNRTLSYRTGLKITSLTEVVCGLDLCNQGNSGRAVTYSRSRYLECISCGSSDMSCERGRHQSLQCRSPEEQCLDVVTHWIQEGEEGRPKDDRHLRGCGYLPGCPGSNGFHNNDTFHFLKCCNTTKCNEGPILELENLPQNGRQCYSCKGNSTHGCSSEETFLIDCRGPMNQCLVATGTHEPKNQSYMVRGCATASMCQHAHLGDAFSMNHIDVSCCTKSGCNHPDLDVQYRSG

[5] = molecular target: T4, Recombinant human uPAR (R&D Systems), immobilized on a CM5 sensor chip (human, UniProt Q03405 23-303, limits assumed); assay: SPR equilibrium binding, Langmuir single-site fit, three sets of readings; SPR equilibrium binding, uPAR immobilized on the chip
T4 construct: Bought protein, amine-coupled to the chip; also called immobilized uPAR
T4 sequence (Q03405 23-303 limits assumed): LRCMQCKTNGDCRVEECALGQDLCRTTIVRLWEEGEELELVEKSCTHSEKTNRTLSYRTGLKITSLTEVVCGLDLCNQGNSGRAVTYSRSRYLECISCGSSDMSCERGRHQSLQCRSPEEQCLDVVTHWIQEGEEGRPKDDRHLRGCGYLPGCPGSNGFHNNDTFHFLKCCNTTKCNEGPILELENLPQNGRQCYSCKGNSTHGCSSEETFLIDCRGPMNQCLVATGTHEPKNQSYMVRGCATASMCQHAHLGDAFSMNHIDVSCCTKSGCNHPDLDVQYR

kon [1]: 570000 M⁻¹ s⁻¹
binding result [2]: no binding
koff [3]: 0.018 s⁻¹
B1: Human CYTL1-alkaline phosphatase fusion protein (other)
chain: TPPTCYSRMRALSQEITRDFNLLQVSEPSEPCVRYLPRLYLDIHNYCVLDKLRDFVASPPCWKVAQVDSLKDKARKLYTIMNSFCRRDLVFLLDDCNALEYPIPVTTVLPDRQR
notes: Expressed in 293 cells from a pRK5-based vector and used as cell-conditioned medium; also called CYTL1-AP; human CYTL1-AP; not shown: Human placental alkaline phosphatase (AP)

Kd [4]: ~1500 nM
Kd [5]: 1100 nM
B2: Purified human CYTL1 (cytokine-like 1), expressed in insect cells, poly-histidine tag cleaved (ligand)
chain: B1 chain
notes: also called purified CYTL1; PRO4425
